According to US20090252749A1:
Where “and” joins values, the source holds several entries; their conditions need not be identical. Equal entries are not always repeated.

Target: B7 protein on the antigen presenting cell (Daudi B cells)
Assay: cell-based or functional assay

Q: CTLA4^A29YL104E-Ig (Fc fusion) was tested. Which EC50 (ng/mL), human IL-2 promoter mediated luciferase activity did it give?
A: Its EC50 (ng/mL), human IL-2 promoter mediated luciferase activity is 19.1 ng/mL and 21.5 ng/mL and 21.8 ng/mL.

Q: And the Lower Asymptote (CPS), human IL-2 promoter mediated luciferase activity?
A: The Lower Asymptote (CPS), human IL-2 promoter mediated luciferase activity was 27000 CPS and 30000 CPS and 29000 CPS.

Q: And the Upper Asymptote (CPS), human IL-2 promoter mediated luciferase activity?
A: The Upper Asymptote (CPS), human IL-2 promoter mediated luciferase activity was 81000 CPS and 85000 CPS and 88000 CPS.
